We go through one substance from publication PMC5275738.

The experiment concerns the target SF3b145(598–631) fragment, tag-free recombinant (isotope-labeled) (human) (UniProt Q13435). As to the kind of experiment: NMR titration.
Sequence of UniProt Q13435 (Q13435 598-631): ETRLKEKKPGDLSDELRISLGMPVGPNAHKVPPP

Regarding “human SF3b49 RRM1 (Pro5–Leu96), tag-free (from UniProt Q15427 5-96) (domain or fragment)”, the Kd is 50 µM.
